Assay results published in patent US20260125454A1 (SHANGHAI JUNSHI BIOSCIENCES, published 2026).

T1: Biotin-huCGRPaSA (human, not fully specified; biotin (position not given))
T1 construct: exact construct ('aSA') not explained; also called Biotin CGRPaSA; full-length (1-37) CGRP
T1 peptide: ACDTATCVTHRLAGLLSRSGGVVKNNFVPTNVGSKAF


Experiments:
[1] = target: CGRP antigen; assay: cell-based or functional assay
[2] = target: T1, Biotin-huCGRPaSA; assay: ELISA, supernatant; relative to chimeric C245
Outline: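 Antibodies, including reference chimeric C245, titrated 2.5-fold from 1000 ng/mL and incubated 60 min at 37°C on wells coated with 1.0 μg/mL biotin-CGRPaSA and blocked with 2% BSA. Bound IgG detected with HRP anti-human Fc antibody and TMB, acid-stopped, absorbance 450/620 nm.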

Binder	IC50 [1] [µg/mL]	relative activity (%) vs Ref(TEVA) [1] [%]	Relative binding activity, % [2] [%]
hu64 (antibody, V domains shown, 1F5 HC-3/3H10 LC2-1) VH: QVQLVQSGAEVKKPGASVKVSCKASGYTFTDFNMHWVRQAPGQGLEWMGYIYPYNGDVVYNQNFTNRVTLTVDTSSSTAYMELRSLRSDDTAVYYCAREGLGGYWGQGTLVTVSS VL: DIVLTQSPDSLAVSLGERATINCKASQNIDYGGYSYMNWYQQKPGQPPKVLIYSVFNLESGVPDRFSGSGSGTDFTLTISSLQAEDVAVYYCQQSNEAPYTFGQGTKLEIK	0.0699	44	116
hu128 (antibody, V domains shown, 2B8 HC1-2/3E5 LC-1) VH: QVQLVQSGAEVKKPGASVKVSCKASGYTFTDYNMHWVRQAPGQGLEWMGNIYPYNGGTVYNQKFNNRVTLTVDTSSSTAYMELRSLRSDDTAVYYCAREGLGGYWGQGTLVTVSS VL: DIVLTQSPDSLAVSLGERATINCKASQNIDYDGYTYLNWYQQKPGQPPKVLIYSIFNLESGVPDRFSGSGSGTDFTLTISSLQAEDVAVYYCQQSNEVPYTFGQGTKLEIK	0.109	28	117
hu193 (antibody, V domains shown, 3E5 HC-4/3E5 LC-1) VH: QVQLVQSGAEVKKPGASVKVSCKTSGYTFTDYNMHWVRQAPGQRLEWMGYISPYNAGTAYNQKFKFRVTLTVDTSSSTAYMELSSLRSEDTAVYYCAREGLGGYWGQGTLVTVSS VL: DIVLTQSPDSLAVSLGERATINCKASQNIDYDGYTYLNWYQQKPGQPPKVLIYSIFNLESGVPDRFSGSGSGTDFTLTISSLQAEDVAVYYCQQSNEVPYTFGQGTKLEIK	0.0775	42	100
hu154 (antibody, V domains shown, 3E5 HC-1/3E5 LC-1) VH: QVQLVQSGAEVKKPGASVKVSCKTSGYTFTDYNMHWVRQAPGQRLEWMGYISPYNGGTAYNQKFKFRVTLTVDTSSSTAYMELSSLRSEDTAVYYCAREGLGGYWGQGTLVTVSS VL: DIVLTQSPDSLAVSLGERATINCKASQNIDYDGYTYLNWYQQKPGQPPKVLIYSIFNLESGVPDRFSGSGSGTDFTLTISSLQAEDVAVYYCQQSNEVPYTFGQGTKLEIK	0.0905	36	121
hu129 (antibody, V domains shown, 2B8 HC1-2/3H10 LC2-1) VH: QVQLVQSGAEVKKPGASVKVSCKASGYTFTDYNMHWVRQAPGQGLEWMGNIYPYNGGTVYNQKFNNRVTLTVDTSSSTAYMELRSLRSDDTAVYYCAREGLGGYWGQGTLVTVSS VL: DIVLTQSPDSLAVSLGERATINCKASQNIDYGGYSYMNWYQQKPGQPPKVLIYSVFNLESGVPDRFSGSGSGTDFTLTISSLQAEDVAVYYCQQSNEAPYTFGQGTKLEIK	0.088	39	117
hu167 (antibody, V domains shown, 3E5 HC-2/3E5 LC-1) VH: QVQLVQSGAEVKKPGASVKVSCKASGYTFTDYNMHWVRQAPGQRLEWMGYISPYNGGTAYNQKFKFRVTLTVDTSSSTAYMELSSLRSEDTAVYYCAREGLGGYWGQGTLVTVSS VL: DIVLTQSPDSLAVSLGERATINCKASQNIDYDGYTYLNWYQQKPGQPPKVLIYSIFNLESGVPDRFSGSGSGTDFTLTISSLQAEDVAVYYCQQSNEVPYTFGQGTKLEIK	0.125	26	101
hu89 (antibody, V domains shown, 1F5 HC-5/3E5 LC-1) VH: QVQLVQSGAEVKKPGASVKVSCKASGYTFIDFNMHWVRQAPGQRLEWMGYIYPYNADVVYNQDFTNRVTLTVDTSSSTAYMELSSLRSEDTAVYYCAREGLGGYWGQGTLVTVSS VL: DIVLTQSPDSLAVSLGERATINCKASQNIDYDGYTYLNWYQQKPGQPPKVLIYSIFNLESGVPDRFSGSGSGTDFTLTISSLQAEDVAVYYCQQSNEVPYTFGQGTKLEIK	0.0979	48	112
